B1: human CD80 (hCD80) expressed on CHO cells (ligand, UniProt P33681 35-288, looked up)
chain: VIHVTKEVKEVATLSCGHNVSVEELAQTRIYWQKEKKMVLTMMSGDMNIWPEYKNRTIFDITNNLSIVILALRPSDEGTYECVVLKYEKDAFKREHLAEVTLSVKADFPTPSISDFEIPTSNIRRIICSTSGGFPEPHLSWLENGEELNAINTTVSQDPETELYAVSSKLDFNMTTNHSFMCLIKYGHLRVNQTFNWNTTKQEHFPDNLLPSWAITLISVNGIFVICCLTYCFAPRCRERRRNERLRRESVRPV
notes: whole, on cells; In most assays co-expressed with human PDL1 on the same CHO cell (cis-CD80:PDL1 clones, e.g. clone 12); also called B7-1; cis-CD80:PDL1 cells

Tests used:
[1] = biological target: B1; experiment: flow cytometry, anti-hIgG1 staining, cis-CD80:PDL1 CHO cells
Experimental: After washing to remove excess fusion protein and antibody, cell pellets were resuspended in 100 μL of FACS buffer (PBS with 10% FCS). Flow cytometry was performed on viable cells (based on SSC/FSC) using a BD LSRII or LSRFortessa (BD Biosciences), and cell sorting was performed using a BD Influx (BD Biosciences) with a 100 μm nozzle. […] All antibodies were used at a final dilution of 1:200 from stock.

[2] = biological target: T1, human PDL1 (hPDL1) expressed on CHO cells (human, UniProt Q9NZQ7 19-290); experiment: flow cytometry, CHO cells co-expressing human CD80 and PDL1 (cis interaction)
T1 construct: whole, on cells; Expressed alone (parental PDL1 clone) or with CD80 (cis-CD80:PDL1 clones)
T1 sequence (Q9NZQ7 19-290): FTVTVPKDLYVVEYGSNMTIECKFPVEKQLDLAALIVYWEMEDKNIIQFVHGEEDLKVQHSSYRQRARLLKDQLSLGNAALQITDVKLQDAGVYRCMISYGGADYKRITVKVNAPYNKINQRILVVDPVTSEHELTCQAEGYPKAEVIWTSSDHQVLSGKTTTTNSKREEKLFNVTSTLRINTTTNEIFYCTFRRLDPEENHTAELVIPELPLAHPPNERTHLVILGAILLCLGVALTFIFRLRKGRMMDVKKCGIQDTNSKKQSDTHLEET

Row | Binder | binding result [1] | binding result [2]
1 | MonoCTLA4-Ig (Fc fusion, not shown: C-terminal FLAG tag) MHVAQPAVVLASSRGIASFVCEYASPGKATEVRVTVLRQADSQVTEVCAATYMMGNELTFLDDSICTGTSSGNQVNLTIQGLRAMDTGLYICKVELMYPPPYYLGIGNGTQIYVIAKEKKPSYNRGLCENAPNRARMQEPKSSDKTHTSPPSPAPELLGGSSVFLFPPKPKDTLMISRTPEVTCVVVDVSHEDPEVKFNWYVDGVEVHNAKTKPREEQYNSTYRVVSVLTVLHQDWLNGKEYKCKVSNKALPAPIEKTISKAKGQPREPQVYTLPPSRDELTKNQVNLTCLVKGFYPSDIAVEWESNGQPENNYKTTPPVLDSDGSFFLNSTLTVDKSRWQQGNVFSCSVMHEALHNHYTQKSLSLSPGK | binds | 
2 | B1 |  | binds

From patent US20250011388A1 (MONASH UNIVERSITY, published 2025)
